According to PMC3691326, “Structure of the Human Telomeric Stn1-Ten1 Capping Complex” (PLoS ONE, 2013):

T1: hStn1 (Homo sapiens, UniProt Q9H668 1-368)
T1 sequence: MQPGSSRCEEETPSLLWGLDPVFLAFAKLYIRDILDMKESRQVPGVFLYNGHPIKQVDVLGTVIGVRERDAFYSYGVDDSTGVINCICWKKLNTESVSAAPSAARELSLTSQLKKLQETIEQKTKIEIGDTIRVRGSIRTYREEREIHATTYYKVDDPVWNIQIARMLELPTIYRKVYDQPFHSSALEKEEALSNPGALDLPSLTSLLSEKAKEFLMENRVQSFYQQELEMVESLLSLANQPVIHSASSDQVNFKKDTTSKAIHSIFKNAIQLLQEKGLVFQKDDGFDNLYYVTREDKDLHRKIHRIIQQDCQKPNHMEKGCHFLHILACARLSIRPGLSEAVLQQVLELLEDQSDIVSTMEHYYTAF

T2: human Stn1, full length, wild type (human, UniProt Q9H668 1-368)
T2 construct: human Stn1 (hStn1), subunit of the human CST complex, full length; The methods describe the his-MBP tag for hStn1N only and say that full-length hStn1 was overexpressed and purified by the same procedure; also called hStn1; hStn1(WT); not shown: His (by 'the same procedure' as hStn1N), N-terminal, cleaved; MBP (by 'the same procedure' as hStn1N), N-terminal, cleaved
T2 sequence (looked up): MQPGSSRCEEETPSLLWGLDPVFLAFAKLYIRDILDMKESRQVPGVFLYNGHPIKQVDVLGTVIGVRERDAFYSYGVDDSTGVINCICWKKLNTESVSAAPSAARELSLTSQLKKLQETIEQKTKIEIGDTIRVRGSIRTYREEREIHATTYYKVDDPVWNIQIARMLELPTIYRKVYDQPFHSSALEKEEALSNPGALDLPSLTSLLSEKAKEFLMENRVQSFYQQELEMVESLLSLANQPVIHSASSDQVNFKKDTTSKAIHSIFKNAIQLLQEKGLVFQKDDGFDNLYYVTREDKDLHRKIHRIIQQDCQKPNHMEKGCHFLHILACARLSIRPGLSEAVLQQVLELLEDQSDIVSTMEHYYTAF

T3: hTen1 (Homo sapiens, UniProt Q86WV5 1-123)
T3 sequence: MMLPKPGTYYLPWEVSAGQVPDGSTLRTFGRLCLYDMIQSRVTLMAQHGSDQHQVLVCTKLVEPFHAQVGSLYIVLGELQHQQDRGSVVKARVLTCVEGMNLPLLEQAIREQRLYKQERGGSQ


How the values were obtained:
hStn1 = biological target: T1, hStn1; experiment: fluorescence polarization; FP: 100 mM NaCl, 5 mM MgCl2, 1 mM DTT, 5% glycerol, 1 mg/mL BSA, 2.5 nM 6-FAM DNA, room temperature; pH not stated; conditions: protein: recombinant; tags: none stated after TEV cleavage (his-MBP fusion removed); single strand
[1] = biological target: T2, human Stn1, full length, wild type; experiment: ITC; MicroCal iTC200; hTen1 at 125 µM injected into the cell with hStn1 at 12 µM; 20°C; 300 mM KCl, 25 mM Tris-HCl pH 7.5, 1 mM DTT, 5% glycerol; 2.47 µL injections; conditions: both partners purified
hTen1 = biological target: T3, hTen1; experiment: fluorescence polarization; not detected; FP: 100 mM NaCl, 5 mM MgCl2, 1 mM DTT, 5% glycerol, 1 mg/mL BSA, 2.5 nM 6-FAM DNA, room temperature; pH not stated; conditions: protein: recombinant; single strand

Row | Binder | Kd (hStn1) | Kd [1] | other results
1 | TTAGGGTTAGGG (ssDNA) [tel12] | ~1000 nM | – | –
2 | GTTACGAAATACGGACAC (ssDNA) [rand18] | ~200 nM | – | –
3 | human Ten1, full length, wild type (natural protein, UniProt Q86WV5 1-123, looked up, human Ten1 (hTen1), subunit of the human CST complex, full length; Purification is described only for the complex with hStn1N (cells mixed before lysis; tags cleaved by TEV); also called hTen1; hTen1(WT); source: E. coli BL21-CodonPlus(DE3) RIPL, purified; not shown: His, N-terminal, cleaved) MMLPKPGTYYLPWEVSAGQVPDGSTLRTFGRLCLYDMIQSRVTLMAQHGSDQHQVLVCTKLVEPFHAQVGSLYIVLGELQHQQDRGSVVKARVLTCVEGMNLPLLEQAIREQRLYKQERGGSQ | – | 6.3 nM | –
4 | human Ten1 (R119Q), full length (natural protein, UniProt Q86WV5 1-123, looked up, human Ten1, full length, with R119Q; also called hTen1(R119Q); source: purified (pure, homogeneous)) MMLPKPGTYYLPWEVSAGQVPDGSTLRTFGRLCLYDMIQSRVTLMAQHGSDQHQVLVCTKLVEPFHAQVGSLYIVLGELQHQQDRGSVVKARVLTCVEGMNLPLLEQAIREQRLYKQEQGGSQ | – | 13 nM | –
5 | human Ten1 (Y115A), full length (natural protein, UniProt Q86WV5 1-123, looked up, human Ten1, full length, with Y115A; also called hTen1(Y115A); source: purified (pure, homogeneous)) MMLPKPGTYYLPWEVSAGQVPDGSTLRTFGRLCLYDMIQSRVTLMAQHGSDQHQVLVCTKLVEPFHAQVGSLYIVLGELQHQQDRGSVVKARVLTCVEGMNLPLLEQAIREQRLAKQERGGSQ | – | 14 nM | –
6 | human Ten1 (R27Q), full length (natural protein, UniProt Q86WV5 1-123, looked up, human Ten1, full length, with R27Q; also called hTen1(R27Q); source: purified (pure, homogeneous)) MMLPKPGTYYLPWEVSAGQVPDGSTLQTFGRLCLYDMIQSRVTLMAQHGSDQHQVLVCTKLVEPFHAQVGSLYIVLGELQHQQDRGSVVKARVLTCVEGMNLPLLEQAIREQRLYKQERGGSQ | – | 33 nM | –
7 | TTAGGGTTAGGGTTAGGG (ssDNA) [tel18] | ~200 nM | – | –
8 | TTAGGGTTAGGGTTAGGGTTAGGGTTAGGG (ssDNA) [tel30] | – | – | binding result (hTen1): no binding
